Test results: publication PMC5730568

Assays:
[1] = test system: GST-MBNL1-His6 (truncated 41-kDa isoform); experiment: filter binding; conditions: MBNL1 filter binding: 250 mM NaCl, 15 mM KCl, 50 mM Tris-HCl pH 8.0, 0.05% Tween-20, 1 mM MgCl2, 37 C, 15 min, SRSF1 EMSA: 100 mM NaCl, 20 mM HEPES-Na pH 8.0 …
SRSF1-His6 (23 kDa) = SRSF1-His6 (23 kDa) (UniProt Q07955); experiment: EMSA; conditions: MBNL1 filter binding: 250 mM NaCl, 15 mM KCl, 50 mM Tris-HCl pH 8.0, 0.05% Tween-20, 1 mM MgCl2, 37 C, 15 min, SRSF1 EMSA: 100 mM NaCl, 20 mM HEPES-Na pH 8.0 …
Chain of UniProt Q07955 (Q07955 1-186): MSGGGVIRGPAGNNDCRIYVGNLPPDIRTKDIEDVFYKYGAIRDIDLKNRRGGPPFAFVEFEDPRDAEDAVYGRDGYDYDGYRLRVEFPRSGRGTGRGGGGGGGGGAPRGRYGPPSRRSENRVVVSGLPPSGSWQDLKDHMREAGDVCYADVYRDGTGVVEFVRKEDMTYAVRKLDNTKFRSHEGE

Atp2a1-RNA was tested. Which binding signal (fold suppression) ([1]; 0.5 uM 2'OMe AON (S4)) did it give?
The binding signal (fold suppression) was 8.

And the binding signal (fold suppression) ([1]; 0.5 uM 2'OMe-PS AON (S5))?
Its binding signal (fold suppression) is 8.

And the binding signal (fold suppression) ([1]; 20 uM DNA AON (S120))?
Its binding signal (fold suppression) is 8.

Which Kd (SRSF1-His6 (23 kDa)) does the source give for “GGGUUGGUACUAAGAAGUGCCUUUCCUGACGUCUCUGCUGCUUGGAACCGCUUCUAGAGCAGCCUCUGCUUUUGCCUUGCUUGCUGCCAGCUAGACUGACGACAGCACAUCCGCCCUCCACCUCUAGCCCAGACACCCCAUUUCUACUUCUAAUCAGGAGAAAAGCUCUGAGUAUCUGCCAUUGCCCUAGG [Mbnl1-RNA]” here?
The Kd was 13 nM.

With Mbnl1-RNA as the substance, how does the Kd (SRSF1-His6 (23 kDa); no AON) read?
Its Kd is 13 nM.

Nfix-RNA was tested. Which Kd (SRSF1-His6 (23 kDa); no AON) did it give?
Its Kd is 60 nM.
